Experimental data published in PMC3212559, “Large-Scale Protein-Protein Interaction Analysis in Arabidopsis Mesophyll Protoplasts by Split Firefly Luciferase Complementation” (PLoS ONE, 2011).

Legend:
Assay in all cases: split reporter (BiFC, NanoBiT); SFLC in living Arabidopsis mesophyll protoplasts: Aux/IAA-FLucN or MYB30-FLucN co-expressed with ARFCTD-FLucC or Aux/IAA-FLucC for 6 hr; 10 µg of each construct, 2×10^4 cells, 96-well plate, D-luciferin; relative activity standardised against ARF5CTD-FLucC + IAA28-FLucN
Conditions in all cases: partners not purified
IAA6-FLucC = target: T1, IAA6-FLucC (Arabidopsis, UniProt Q38824 1-189)
T1 construct: Arabidopsis Aux/IAA protein IAA6; also called Aux/IAA-FLucC; source: Arabidopsis mesophyll protoplasts, transfected, in living cells; not shown: FLucC (firefly luciferase aa 394-550)
T1 sequence (looked up): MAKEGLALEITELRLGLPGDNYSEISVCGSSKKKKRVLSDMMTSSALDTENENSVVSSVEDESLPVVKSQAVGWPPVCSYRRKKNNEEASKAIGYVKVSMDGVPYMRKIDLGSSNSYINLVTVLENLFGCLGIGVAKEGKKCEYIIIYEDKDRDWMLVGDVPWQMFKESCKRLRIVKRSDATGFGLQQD

[1] = target: T2, C-terminal domain (CTD) of ARF5-FLucC (Arabidopsis, UniProt P93024 793-902)
T2 construct: In the ARF-ARF tests the same CTD stood both as ARFCTD-FLucC and as ARFCTD-FLucN; one molecule for both; also called ARF5CTD-FLucC; auxin response factor 5; source: Arabidopsis mesophyll protoplasts, transfected, in living cells (SFLC) and in lysate (co-IP); not shown: FLucC (firefly luciferase aa 394-550)
T2 sequence (looked up): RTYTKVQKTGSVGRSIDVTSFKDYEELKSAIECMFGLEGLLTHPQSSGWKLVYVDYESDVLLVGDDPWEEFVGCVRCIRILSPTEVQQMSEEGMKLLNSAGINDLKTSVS

IAA28-FLucC = target: T3, IAA28-FLucC (Arabidopsis, UniProt Q9XFM0 1-175)
T3 construct: Arabidopsis Aux/IAA protein IAA28; also called Aux/IAA-FLucC; source: Arabidopsis mesophyll protoplasts, transfected, in living cells; not shown: FLucC (firefly luciferase aa 394-550)
T3 sequence (looked up): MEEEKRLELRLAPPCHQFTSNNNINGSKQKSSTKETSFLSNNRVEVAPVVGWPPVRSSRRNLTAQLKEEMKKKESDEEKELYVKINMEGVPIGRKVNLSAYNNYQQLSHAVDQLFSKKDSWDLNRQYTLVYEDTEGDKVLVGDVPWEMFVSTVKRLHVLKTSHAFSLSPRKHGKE

IAA7-FLucC = target: T4, IAA7-FLucC (Arabidopsis, UniProt Q38825 1-243)
T4 construct: Arabidopsis Aux/IAA protein IAA7; also called Aux/IAA-FLucC; source: Arabidopsis mesophyll protoplasts, transfected, in living cells; not shown: FLucC (firefly luciferase aa 394-550)
T4 sequence (looked up): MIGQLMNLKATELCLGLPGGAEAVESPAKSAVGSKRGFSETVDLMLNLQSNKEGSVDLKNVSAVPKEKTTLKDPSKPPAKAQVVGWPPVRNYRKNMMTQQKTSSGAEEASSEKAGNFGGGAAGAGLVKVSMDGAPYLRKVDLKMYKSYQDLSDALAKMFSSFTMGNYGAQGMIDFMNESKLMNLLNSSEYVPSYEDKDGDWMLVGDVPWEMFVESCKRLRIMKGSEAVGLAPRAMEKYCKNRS

[2] = target: T5, ARF9 C-terminal domain (CTD)-FLucC (Arabidopsis, UniProt Q9XED8 523-638)
T5 construct: Arabidopsis auxin response factor 9, C-terminal dimerization domain (CTD); In the ARF-ARF tests the same CTD stood both as ARFCTD-FLucC and as ARFCTD-FLucN; one molecule for both; also called ARF9CTD-FLucC; ARFCTD-FLucC; source: Arabidopsis mesophyll protoplasts, transfected, in living cells (SFLC) and in lysate (co-IP); not shown: FLucC (firefly luciferase aa 394-550)
T5 sequence (looked up): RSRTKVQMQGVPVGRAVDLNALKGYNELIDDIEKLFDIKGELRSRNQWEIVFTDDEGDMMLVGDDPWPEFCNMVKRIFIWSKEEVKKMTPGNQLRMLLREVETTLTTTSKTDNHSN

IAA17-FLucC = target: T6, IAA17-FLucC (Arabidopsis, UniProt P93830 1-229)
T6 construct: Arabidopsis Aux/IAA protein IAA17; also called Aux/IAA-FLucC; source: Arabidopsis mesophyll protoplasts, transfected, in living cells; not shown: FLucC (firefly luciferase aa 394-550)
T6 sequence (P93830 whole entry, the tested form may be a part): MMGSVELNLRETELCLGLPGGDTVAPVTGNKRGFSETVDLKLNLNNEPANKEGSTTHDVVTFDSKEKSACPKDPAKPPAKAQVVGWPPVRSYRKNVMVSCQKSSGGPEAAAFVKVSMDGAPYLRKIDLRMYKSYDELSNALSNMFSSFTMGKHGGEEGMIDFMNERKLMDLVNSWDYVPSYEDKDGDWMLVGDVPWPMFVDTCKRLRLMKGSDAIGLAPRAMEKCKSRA

Measured: relative luciferase activity (standardised against ARF5CTD-FLucC + IAA28-FLucN)

B1: MYB30-FLucN (natural protein, UniProt Q9SCU7 1-323, looked up)
chain: MVRPPCCDKGGVKKGPWTPEEDIILVTYIQEHGPGNWRAVPTNTGLLRCSKSCRLRWTNYLRPGIKRGNFTEHEEKMIVHLQALLGNRWAAIASYLPQRTDNDIKNYWNTHLKKKLNKVNQDSHQELDRSSLSSSPSSSSANSNSNISRGQWERRLQTDIHLAKKALSEALSPAVAPIITSTVTTTSSSAESRRSTSSASGFLRTQETSTTYASSTENIAKLLKGWVKNSPKTQNSADQIASTEVKEVIKSDDGKECAGAFQSFSEFDHSYQQAGVSPDHETKPDITGCCSNQSQWSLFEKWLFEDSGGQIGDILLDENTNFF
notes: transcription factor MYB30, the unrelated protein used as negative control; source: Arabidopsis mesophyll protoplasts, transfected, in living cells; not shown: FLucN (firefly luciferase aa 1-398)
< 0.1: all assays above
